Target: CCR1-rHDL (human C-C chemokine receptor 1 with C-terminal 1D4 tag, in reconstituted high density lipoprotein) (human) (UniProt P32246)
Assay: SPR; CCR1-rHDL captured via immobilised 1D4 antibody on a CM5 chip (~3000 RU); MIP-1α variant flowed at 0.13-5.0 μM; 25 °C; 20 mM HEPES, pH 7.2, 100 mM NaCl; empty-rHDL on the control flow cell; steady-state fit

Chain of UniProt P32246 (P32246 whole entry): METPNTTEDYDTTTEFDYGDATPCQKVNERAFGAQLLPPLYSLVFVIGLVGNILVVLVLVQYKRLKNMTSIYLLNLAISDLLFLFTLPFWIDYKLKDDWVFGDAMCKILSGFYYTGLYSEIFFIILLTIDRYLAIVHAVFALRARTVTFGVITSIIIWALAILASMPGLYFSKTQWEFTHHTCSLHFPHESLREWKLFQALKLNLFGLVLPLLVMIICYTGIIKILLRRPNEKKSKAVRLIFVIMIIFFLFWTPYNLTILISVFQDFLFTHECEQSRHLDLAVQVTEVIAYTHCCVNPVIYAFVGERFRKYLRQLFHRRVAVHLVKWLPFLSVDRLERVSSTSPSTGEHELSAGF

Kd: 2000 nM
Substance: MIP-1α variant (P8A/F13Y/E67Q) (ligand)

— PMC4662715
